The assay addresses Skp(S126C) (UniProt P0AEU7). Put plainly: SEC; HiLoad 16/600 Superdex 200 pg; NMR buffer (20 mM MES, pH 6.5, 150 mM NaCl, 1 mM DTT); refolded protein eluted at 79 mL. (In general: Size exclusion chromatography separates by hydrodynamic size, large species first.)

What is called stoichiometry N is a count of units in the complex or per binding partner.

Substance “Skp(S126C) (from UniProt P0AEU7 21-161) (natural protein)” gave a stoichiometry N of 3.

Source of the values: article PMC7508745.
